Assay results as given in article PMC11915506.
Read-outs that look alike come from different tables or passages of the source.

Legend:
[1] = biological target: Peltigera membranacea cyanobiont 210A (Pmc) TnsC (Peltigera membranacea cyanobiont 210A); experiment: cryo-EM structure
[2] = biological target: Peltigera membranacea cyanobiont 210A (Pmc) TnsC (Peltigera membranacea cyanobiont 210A); experiment: cryo-EM structure; remark: listed apart in the source

Substance: Peltigera membranacea cyanobiont 210A (Pmc) TnsC (natural protein)
- stoichiometry N [1]: 7
- stoichiometry N [2]: 7
